# Data reported in the DeepSol protein solubility set.
# Test: soluble on expression in E. coli; label from the status in PepcDB or PDB records
row,Sequence,soluble on expression in E. coli
1,MKDLIIIGAGQAGLTMGYYLKQEGYNFLLLEAGKRVGDSWRNRYDSLQLFTPRSYSSLPGMALIGEKNEFPYKDEIATYLEEYARHFQLPVQLQTEVLKIKKEKEIFELHTPTEILQTKKVIIASGAFQQPFIPSVSANLSSHIFQIHSSQYKSPSQIPKGKVLVVGGGNSGMQIAVELAKTHEVTVSISHPLTFLPLQLFGKSIFNLLEKVGLLYAEINTKRGRWFQKRKDPIFGFEGKKLIRNGAIKLQEKVVSASRNNIMFQNGDTYSAESIIWSTGFVQNYNWIEIEQAVNEKGFPNHIKGISPVKGLYYIGLPWQSQRGSALICGVGKDAEYVLSEIKKIDQLEHHHHHH,soluble
2,MSLATLQDLDLTGNTNLVLEHKTLDIFSHITTLKIDQKPLPTTDSTVTSTFWSHGLAEMAGQRNKLCVSALAMDSFAEGVGAVYGMFDGDRNEELPRLLQCTMADVLLEEVQQSTNDTVFMANTFLVSHRKLGMAGQKLGSSALLCYIRPDTADPASSFSLTVANVGTCQAVLCRGGKPVPLSKVFSLEQDPEEAQRVKDQKAIITEDNKVNGVTCCTRMLGCTYLYPWILPKPHISSTPLTIQDELLILGNKALWEHLSYTEAVNAVRHVQDPLAAAKKLCTLAQSYGCQDNVGAMVVYLNIGEEGCTCEMNGLTLPGPVGFASTTTIKEGHHHHHH,soluble
3,MAHHHHHHMDNSHFSKMLKECKIIGKSFTSTDADLLFSKVKAKEARKISFTEFKEKAIPEIAAKMKKTPADIEAMIANAAPKSSGTKADTVRFHDDKSTYTGAAKQGGPTNVDRNAGSLAGVVDRRQETINNRGFTA,soluble
4,METETYTNSSHLGRKIERIRRLRGMTQTDLGELLGVTKQAISKMEQAEKIDDEKLKQVATALGVTEEGLKKFTEETVLYYTSNFYENCHVSASNIGPITHVENLNHFSMDQAVKLFEELLKIERDKYDKGKEESAK,not soluble
5,MGSDKIHHHHHHMKTRDRIVHASLELFNLNGEPGITTNHIAAHLGMSPGNLYYHFRNKEDIIRSIFDLYQQHLEKGFQPYENKQVDMALLMGYFDALFYTLWQFRFMYANLVIILGRDEELKQKYLGIQQQVLARSSNILQQLKKDKVLDIADDEITPLADTIRMIAGFWISNQLTYSGAANITKSSLYEGLLRVLMLFKAYSTSDSFETFKHLEQHYRTLALEDDQ,not soluble
6,MGSDKIHHHHHHMTAQRPNRLINESSPYLLQHARNPVDWHPWGEEAFALARSEDKPVFLSIGYSTCHWCHVMAHESFEDEAVAALLNEAFINVKVDREDRPDIDSIYMAACQMLTGSGGWPLTIVMTPDGRPFFAATYIPRLSRGGRTGMLELVPRIRDIWRKQRADVTASADSVAEHMRRHAEGLLRPSSGGAPDDTTVRQAVDTLCQRYDARHGGFGSAPKFPAPHSLLLLLRHAHRTQDAARRAQLTGMVSHTLEAMRLGGIFDHAGYGFHRYSTDKEWLLPHFEKMLYDQAMHVLAYTRGWQLTGRPLFRRTAEEIMMYVMRDLTSPQGAFYAAEDADSDAPPHFAAMGLPHRGEGFFYLFTLQEIRGLLSREDALLAEKIWNLQEEGN,not soluble
7,METFILSSDSDDDSGPPPSKRRTIEGIPRSFSGDKKIRFSFGASNMSQDTTQEIIPEDTDTVPLTIPSTPALSGKFDSKTPKSVRRRSVSMSCFTPIVETINQPPTNQACSSFLQKEYNFHDLSSDEEGGDGGAGCSKDEDKIIEDNLNLRALLSPEKKKRKEKIEEVQNEFYGVYCLISRSDRPCYKNRCYIGYTVDPNRRIMQHNGGRDKGGAKKTDSRGPWDMVCVVHGFPNHVAALHFEWAWQNPLVSKSLKEKQLRKERKETPFAFQLRIACELMNSSAFCRFALTFRWLITTEELPFPTSCVPPDHTKLRFGKVKKEMSLVPSKREDYLEMGECRICGKDIEKLWSLVRCISATCPSHFHSKCLSENGLKLKNEHVDHVYPLKANCPTCGQFYLWGDIIREQRRIIKISTKCAEEFQNMVVRKELPHREISPISSKK,not soluble
8,MGSDKIHHHHHHMSAALSCGTIHGVGLGPGAPDLLSVRSDRLVRGARHVAYFRKAGRPGQARRIVEGMLRPDVIEIPMEYPVTTEIPLSDPRYNDCLSAFYAECTQRLVMLAQAGEDVVVLCEGDPFFYGSFMHLHTRLAGTVPVAVVPGITGMAGAWNATGIPITWGDDVLTIAMATLPEDELVRRIRDTDALVVMKIGRNLPKLRRAVAAAGREDAAWLVEHAAMPGQRVTRLIEAETVTPYFSILLIHGQGRRP,not soluble
9,MAHHHHHHMNNSVTRKIEKQILEALKDKENDIDKEIRKYEILERKVYDENDEELEFIKNKRLEELKNKHKEKLTLLKKGHGTYKEVLSEKEFFEICKSSKNVCCHFYRNTTWRCQYMDKKLIDLSSKYWNINFIKINAEKSPFLCERLKIWCIPTVMLIQNGKTEHSIVGFDELGGDNFSEQTLVNVLRKWRLIETKENDD,not soluble
10,MTLQEQIMKALHVQPVIDPKAEIRKRVDFLKDYVKKTGAKGFVLGISGGQDSTLAGRLAQLAVEEIRNEGGNATFIAVRLPYKVQKDEDDAQLALQFIQADQSVAFDIASTVDAFSNQYENLLDESLTDFNKGNVKARIRMVTQYAIGGQKGLLVIGTDHAAEAVTGFFTKFGDGGADLLPLTGLTKRQGRALLQELGADERLYLKMPTADLLDEKPGQADETELGITYDQLDDYLEGKTVPADVAEKIEKRYTVSEHKRQVPASMFDDWWKLAAALEHHHHHH,soluble
11,MGSDKIHHHHHHAMSNKPVVLQGQIEATEIRISGKLPGRIDTFLVREGQYVKMGDTLVVINSPEAWAKFQQVNALEDIAKFQNKKIDDGTRRQIVRSVEELWNKSKSDLQLATVTYDRIQALYKDSVVTSQRKDEVEAMYKAAVAAERAAHQQFLLVKDGAQKEDKESARSLVDAARGTVNEVQALLMDARLTAPEDGQISTIYPKRGELVGAGTPIMSLVVLDDCHVVLNVREDYMPYFRMNENFMGDIPALDVKNKAFKINYISPLGSFATWRSTKQTGTYDMKTFEIHALPVEPMEGLRPGMSVLVNLDELK,not soluble
12,MGDILAHESELLGLVKEYLDFAEFEDTLKTFSKECKIKGKPLCKTVGGSFRDSKSLTIQKDLVAAFDNGDQKVFFDLWEEHISSSIRDGDSFAQKLEFYLHIHFAIYFLKYSVGRPDKEELDEKISYFKTYLETKGAALSQTTEFLPFYALPFVPNPMVHPSFKELFQDSWTPELKLKLEKFLALISKASNTPKLLTIYKENGQSNKEILQQLHQQLVEAERRSVTYLKRYNKIQADYHNLIGVTAELVDSLEATVSGKMITPEYLQSVCVRLFSNQMRQSLAHSVDFTRPGTASTMLRASLAPVKLKDVPLLPSLDYEKLKKDLILGSDRLKAFLLQALRWRLTTSHPGEQRETVLQAYISNDLLDCYSHNQRSVLQLLHSTSDVVRQYMARLINAFASLAEGRLYLAQNTKVLQMLEGRLKEEDKDIITRENVLGALQKFSLRRPLQTAMIQDGLIFWLVDVLKDPDCLSDYTLEYSVALLMNLCLRSTGKNMCAKVAGLVLKVLSDLLGHENHEIQPYVNGALYSILSVPSIREEARAMGMEDILRCFIKEGNAEMIRQIEFIIKQLNSEELPDGVLESDDDEDEDDEEDHDIMEADLDKDELIQPQLGELSGEKLLTTEYLGIMTNTGKTRRKGLANVQWSGDEPLQRPVTPGGHRNGYPV,not soluble
13,KVNMDLRANLKQVKKEDTEKEKDLRDVGDWRKNIEEKSGMEGRKKMFEAGES,soluble
14,MGLIKENRMDSLKVSDYMTLQAVTFSPDMSLSAALEKVVRSDNMGGPVIDAQRHVIGFLSEQDLLDKLVHASYHCQDAHLVSDCMHKEVLSVAPETSIIELAAMMKVGKPKMYPVVSDGKLVGVITRRDVLRALSKTLTNCFQHPV,not soluble
15,MGSDKIHHHHHHMTRTIVIDPVTRIEGHAKISVFLDDQGNAEAARFHVVEYRGFEKFCEGRPFTEMAGITARICGICPVSHLLAAAKTGDKILAVQIPPAAENLRRLINLAQIIQSHALSFFHLSSPDFLLGWDSDPARRNLFGLIAADPETARAGIRLRQFGQQLIEWLGGRKIHAAWAVPGGVRSLLSQEGMVWIRDRLPAELATVRATLDRFKRLLDREFREETAVFGDFPSLFMGLVADNGDWEHYGGHLRFVDSQGRIIADRLREDDYASFLGEAVEPWSYLKFPYYKPWGYPEGMYRVGPLARLNVCDRIGTAGAEAERQELRDRAGGTVTSSFLYHYARLVEILASLEKIAEMVEDPNLQTGFLRSQAGVNCLEAIGVSEAPRGTLFHHYRVDSHGKIERVNLIIATGQNNLAMNRTVTQIAQHYIRHGEVQESFLNRVEAGIRCFDPCLSCSTHTAGQMPLKIEIFDSRGELYQCLCRDL,not soluble
16,MGSDKIHHHHHHKYTLRFGHVLAPGEPYHQAFLKWAKAVEEKTNGDVRIEVFPSSQLGVEEDIIEQIRMGAPVGWNTDSARLGMYVKDIGVMNLAYFIDFMGAKTPEEAIEVLKKIKQSPTMQKWLKELEQRFGIKVLSFYWVQGYRHFVTNKPIRKPEDLNGLRIRTPGAPAWQESIRSLGAIPVAVNFGEIYTAVQTRAVDGAELTYANVYNGGLYEVLKYMSETGHFLLINFEIVSADWFNSLPKEYQKIIEEEMDKAGIEVSLKIMKELEEEYKQKCIEKGMAVIPASEIDKEAFMEKAKQAYKNLGLENALNQLIKEVKGE,not soluble
17,MGSDKIHHHHHHMHLSRDVVLLITHSGDFFTIDRVAEALAKKGVQPFRLDTDKFPLQVQLTAHFDKSQSHHTIEYDNHSISTEQVQAVWMRRIWEPNLSQELAPKFQEACIRESKATLDAFWDSLKGARWVDDLERINYANNKLRQLRIASEVGFVIPQTLVTNKAQAAREFFGQVNGKMVSKLLTTLSRSMEANSSFFLYTSIVKEKDLEDAESLRYCPMVFQEQIPKQMELRVVYVNGHVFVGALNADVYAATKADWRKPGVEVGAWQHHQLPDELVRRLQAFMGKFGLLFGSLDFILTPSGEYVFLEVNPIGEWGMLEKDLDLPIANAIADILLQN,not soluble
18,GPGSMLRATILARGTLVKIGRGPNNVTESASNALLESLQDHGYCYIQHPFIQKTILDQLHRDCRIFFEQYVLHLHDAAAQGSLKRNNLHNYNCTQLSPYELESIKSPSGFRGYYRYVGASGIDDAIECFSVGRDDVADPAVLRRDYYKQAGWEESEYLSMISRRNPWDILLNHVNSIPASGSGIVPGMDRNDNFMSDFKDMMMAYYDLCYTVSMDVMRHISCGLGIRPSIPQGGSDPTMDFELEYFTSFHQKRDCDLQAKYYPQLGAGARLKNGVDIQNQRSAHNPDGVKVLRRKGAKTQPLVRTASTEDGDGEKDVTVRLDTHKDLSTITLLSQDSLGGLEVWDEEKASYMAVPVLEDALLVNAGLFLEKWTGGLIEATPHRVRNAKGGSSRCSIVFFALPDHDARIEPLLQQEDNPAVDAQDSFLAGDMMPAP,not soluble
19,MSINTSGKITSATERADSADFRTIIRNKIPLMDVRAPVEFGKGAFDLSINYPLMNNDERADVGICYKQNGQEAAIKLGNALVSGQSKARRLTQWQTFARENPQGYLYCFRGGLRSQTVQRWLKESGINYPLITGGYKALRQFLLNELEQLALHPLTILAGNTGSGKTPFLAHCANSLDLEGAAGHRGSSFGSFVTPQSNQINFENKLAEQYIRGDFSLEQRLVLEDEGRLIGSVHLPESLRNAMTLAPLVVIEESLEYRLEQIYQEYIIKMTAQYQAAYGVEQGFTAFSEYLEHGLFKVRKRLGTQRYGQLKEIQSTALTQQNKGQPQYHLDWLKPLLSEYYDPMYQYQLGLKSDRVIFRGNNSECLAFLRD,not soluble
